Experimental data: a protein production outcome set (Wang et al. 2014)

Test: label from the status in PepcDB records

With “MCRGPLGSYESLTRPSFAFIVISPSATLLTHAPGSQEPHVSRHNRRRSTLHKRATVFGGGTVAVAAVVATVNIASADQVSPTPRTASKADHAVFVQGNELAGNTIHVFRRGDDGKLTAAGKYATGGKGGDQVDAPTDSLASQGSLVYDRRSGRLLALNAGSGTLTSYAVHGQKLTDRQTVPTGGDFPVGIAVSGDLAYVMNAGGAGSVQGFRITTMGLKPLSGSLRTLGLKNEKVPLFSSSPGQAAFTPDGRNLVVTTKSANTVEVFPIGRDGRPAHKPVVNKSAGMVPFAIAFDKTGRMLVAEAAESTVSTYKVRRNGELQVLQKPLPNGQDTLCWLERAGDFFYGGNTGNSTVSGYRMDARGRLALTNEAGIAAAPSAKSQGVIDIAVAADKFVYVQNATSGTVDGFRVGRTGALTKVTTVTDLPAFAESGMEGIAAV” the protein production was “failed”.

In the case of “MEIFFTILILTLVVSLSGVVTRILPFQVPLPLMQIALGAILAWPQFGLHVDFNPELFMVLFIPPLLFADGWKTPTREFLRHGREIIGLALVLVLITVVGIGYFIYWMVPGMPLIAAFALAAVLSPTDAVALSGIVGEGRIPKKLMGILQGEALMNDASGLVSLKFAVAIAMGTMVFTVSGATLEFVQVALGGLLAGVGVTWIFGKSLRVISRWSGDDAATQIVLLLLLPFASYLIAEHIGVSGILAAVAAGMTIGQSGVIRSAPLTMRMRANGVWSMLEFVFNGMVFIMLGLQLPDILETSVTQAELDPTVETWMLFTDIAIIYGALLLLRFSWLWVMRTYSVHIQKKRPMVFAEFSTRELWIASFAGVRGAITLAGVLSIPLLLTDGTAFPSRYQLVFIATGVILFSLLCGVLALPFLLRGVVVADKAAHAKEIRMARMAVAEVAIKSMHKMEERLAADREENIDEQVLKEVSARVIGNLRRRLINKDDPENGLLIENLERRFRLTALNSERAELYHLRATQQISNETLQKMLRDLDLMEALLIENE”, the protein production is reported as “failed”.

For “SSVVKSIELVLPEDRIYLAGSSIKGQVILTLNSTLVDPIVKVELVGRGYVEWSEEAGASCDYSRNVICNNKADYVHKTKTFPVEDNWLSAGSHTFDFHFNLPPRLPSTFTSKFGHVFYFVQASCMGREHILAKKRMYLLVQGTSTFHKETPFQNPLFVEAEEKVSYNCCRQGTVCLQIQMERNTFTPGEKVVFTTEINNQTSKCIKTVVFALYAHIQYEGFTPSAERRSRLDSSELLRQEANTPVTRFNTTKVVSTFNLPLLLSVSSSTQDGEIMHTRYELVTTVHLPWSLTSLKAKVPIIITSASVDSAICQLSEDGVLPVNPDHQN”, the protein production was “not failed”.

For “MSSSSSVPAYLGDEDLTQETRALISSLPKEKGWLVSEIYEFQGLWHTQAILQGILICQKRFEAKDSDIILVTNPKSGTTWLKALVFALLNRHKFPVSSSGNHPLLVTNPHLLVPFLEGVYYESPDFDFSSLPSPRLMNTHISHLSLPESVKSSSCKIVYCCRNPKDMFVSLWHFGKKLAPEETADYPIEKAVEAFCEGKFIGGPFWDHILEYWYASRENPNKVLFVTYEELKKQTEVEMKRIAEFLECGFIEEEEVREIVKLCSFESLSNLEVNKEGKLPNGIETKTFFRKGEIGGWRDTLSESLAEEIDRTIEEKFKGSGLKFSS”, the protein production was “not failed”.

With “ILARTKIFPWFFDLKRNKMLIDAHWFSYLGIPAGDCEITIEKFFSRVHPNERDMLADALQKQLSEKEIPDSFSYRLQRGDGSWEWFSEQSMYLSKTNDGSPYRIVGVCHSIQEHKNT” the protein production was “failed”.

In the case of “MAFPEYSPAASAATFADLQIHPRVLRAIGDVGYESPTAIQAATIPALMAGSDVVGLAQTGTGKTAAFAIPMLSKIDITSKVPQALVLVPTRELALQVAEAFGRYGAYLSQLNVLPIYGGSSYAVQLAGLRRGAQVVVGTPGRVIDHLERATLDLSRVDFLVLDEADEMLTMGFADDVERILSETPEYKQVALFSATMPPAIRKLSAKYLHDPFEVTCKAKTAVAENISQSYIQVARKMDALTRVLEVEPFEAMIVFVRTKQATEEIAEKLRARGFSAAAISGDVPQAQRERTITALRDGDIDILVATDVAARGLDVERISHVLNYDIPHDTESYVHRIGRTGRAGRSGAALIFVSPRELHLLKAIEKATRQTLTEAQLPTVEDVNTQRVAKFADSITNALGGPGIELFRRLVEEYEREHDVPMADIAAALAVQCRGGEAFLMAPDPPLSRRNRDQRRDRPQRPKRRPDLTTYRVAVGKRHKIGPGAIVGAIANEGGLHRSDFGQIRIGPDFSLVELPAKLPRATLKKLAQTRISGVLIDLRPYRPPDAARRHNGGKPRRKHVG”, the protein production is reported as “failed”.

With “WLDDGKNGGQLGSVEASAVYRNTQVFGEAAYATEPGALSWICGVQSDLAKGITGVVSMRDYAFEYYSPFAGAFAERGDNASNESGLYLGLKAKVRDNLTLAGLYDRFRFPVLDKRYYVYPSSGYEARFYATWKQNRWMTWDAMYQHKEKEEAKKQFDSNIGTSRYIPVPKITNRVQLGLVVECSPGITLKSRAAFKSLRSHFVTGAESEEGWLLYQQINLKRGPFTLKTRLARFDTDSYDVALYAYEDDLPLVYMLNAYYGRGKAWFIVLDFEPVKNFNLTAKYETTWYDDRDVYSSGNDLRNTSSPGSYHVGCMLKF” the protein production was “failed”.

For “MIDKREVLAPNRRSRQREEIVAEEKRYEVYFQPLLSGVEVKKSNEIKIVLPQQEYNRIEQGAKGTLRLQGTRYISFVPNSVAKLEHHHHHH”, the protein production was “not failed”.

For “MGGHFWPPEPYTVFMWGSPWEADSPRVKLRGREKGRQTEGGAFPLVSSALSGDPRFFSPTTPPAEPIVVRLKEVRLQRDDFEILKVIGRGAFSEVAVVKMKQTGQVYAMKIMNKWDMLKRGEVSCFREERDVLVNGDRRWITQLHFAFQDENYLYLVMEYYVGGDLLTLLSKFGERIPAEMARFYLAEIVMAIDSVHRLGYVHRDIKPDNILLDRCGHIRLADFGSCLKLRADGTVRSLVAVGTPDYLSPEILQAV”, the protein production was “failed”.

In the case of “MLLILAILPIVVTVGLGVFAGLRHQFAPTTSDILIQLVMHYALPLSLFGGILSLKRATIIQNSSVALWLALGMLGGMVIVIVSQCCFHQQLETGTLRALVIASPSIPFMGVSVLLVVFGKISVLLVALGGLYMNLVQVPVSVLLLTLAGGSTPEQRWRAGWQKLCRASRQPVVWAPISAFLLNLAGLRLPSAWLTNFTELGQAAGGVALFALGLLLTTRPWRLTRMVVLNVLLKNLGLPVLIWGIMASLGVSLSNQQLVVLTLAIPTATIATMLAVQNHLAPDEYVATQMLSTVIAPLTMGFLMWGLQLV”, the protein production is reported as “failed”.

For “MFLKIPFKILRLATAYVRIRVKNIILKLKLVFGKNVFIGSNVVIDPGYHWLISIGNNSAITNGVTILSHDGSLSRHTGYTKIGKVSIGSNTFIGVKSIILPGVSIGNNVIIGAGSVVTKDIPDNSVAIGNPAVVVGSIKDYINKHKRMIRTSEVYECQSLLKDNIRDFKGEIGYVKTNFENHEDL”, the protein production was “failed”.

For “MTIADIVMLTATIIIWSLLIVNILLVIFGYVYYLKTDPVAPPPVEDEDAPFVSIMVPAHNEGIVIVRTVEALLNFNYPQDRYEIIVINDNSSDNSAELLANVQKKAVNRNLQIINTDNITGGKGKSNALNIGFKQAKGDVIAIYDADNTPEPNALRYLVGELIASEEYGAVIGKFRTRNRNASLLTRFINIETLAFQWMAQAGRFQLFKLCTIPGTNFIVRRSIIEAIGGWDDKALAEDTEISFRIYMMGYKIKFQPKAVTWEQEPQTLSVWFRQRTRWVKGNIYVIVKNAKLLFNPKASRIRFDILYFLSIYFLLMTSLVLSDIMLVLSMSGYLTTTLQGFSNSLWLLAILLFIFSTFVSITTEKGEMTLENILIIALMYITYSQMWLVVAAYGMVMYIKENVFHKQTQTKWYKTERFK”, the protein production was “failed”.

In the case of “DDSLGEAVTTRAEALTIPAVLRARNLLSTTVARTPLVCDGTLPPFVPVAAPPGAATMQTPFHRMLATADDLLFNGVACWALDRDESGTCIGAIHIPLDTWQIEENTVRVNGKAVDPMEVCIFVGIHGGLLTHASETFTDARNLVRAAARVAQNPAALIELRQTNNAQLSPDDVDRIINGYVAARRGRNSGVGFSSSGLEVHEHEMAKENLLIEGRNAAAVDVARAMNVPAAFIDATVGGTSLSYQNAASRMIELVTFGVEPLMSAIEARLNQPDMHADHLANPLKFDPAALLDAIPTTPTIG”, the protein production is reported as “not failed”.

For “MDPEKGTIRLDFMHSLGTWMVPELIRTFRAEHPNVEFQLHQAAAMLLVDRVLADETDLALVGPKPAEVGTSLGWAPLLRQRLALAVPADHRLASFSGQGELPLITAAEEPFVAMRAGFGTRLLMDALAEEAGFVPNVVFESME”, the protein production was “failed”.
